Laboratory results taken from patent US20180030151A1 (MOGAM INSTITUTE FOR BIOMEDICAL RESEARCH, published 2018).
Where two headings read alike, the source gives them in different places.

How the values were obtained:
Test in all cases: cell-based or functional assay
[1] = target: T1, recombinant human TFPI (tissue factor pathway inhibitor) (human, UniProt P10646 29-304)
[2] = target: T1, recombinant human TFPI (tissue factor …); remark: listed apart in the source
[3] = target: TFPI in FVIII-deficient plasma (sample dilution)
[4] = target: T1, recombinant human TFPI (tissue factor …); remark: listed apart in the source
[5] = target: T1, recombinant human TFPI (tissue factor …); remark: listed apart in the source
[6] = target: T1, recombinant human TFPI (tissue factor …); remark: listed apart in the source
[7] = target: T1, recombinant human TFPI (tissue factor …); remark: listed apart in the source
[8] = target: T1, recombinant human TFPI (tissue factor …); remark: listed apart in the source
[9] = target: T1, recombinant human TFPI (tissue factor …); remark: listed apart in the source
[10] = target: T1, recombinant human TFPI (tissue factor …); remark: listed apart in the source
[11] = target: T1, recombinant human TFPI (tissue factor …); remark: listed apart in the source

- A405, TF/FVIIa/FX complex assay, Ab 1.56 nM [1]: 0.135
- A405, TF/FVIIa/FX complex assay, Ab 3.13 nM [1]: 0.16
- A405, TF/FVIIa/FX complex assay, Ab 6.25 nM [1]: 0.185
- A405, TF/FVIIa/FX complex assay, Ab 12.5 nM [1]: 0.29
- A405, TF/FVIIa/FX complex assay, Ab 25 nM [1]: 0.914
- A405, TF/FVIIa/FX complex assay, Ab 50 nM [1]: 0.938
- A405, TF/FVIIa/FX complex assay, Ab 100 nM [1]: 0.939
- FXa assay % of FXa alone, 2.5 nM Ab, 10 nM TFPI [2]: 8.1%
- FXa assay % of FXa alone, 5 nM Ab, 10 nM TFPI [2]: 16.2%
- FXa assay % of FXa alone, 10 nM Ab, 10 nM TFPI [2]: 80.9%
- FXa assay % of FXa alone, 20 nM Ab, 10 nM TFPI [2]: 92.8%
- FXa assay OD, 2.5 nM Ab, 10 nM TFPI [2]: 0.096
- FXa assay OD, 5 nM Ab, 10 nM TFPI [2]: 0.193
- FXa assay OD, 10 nM Ab, 10 nM TFPI [2]: 0.963
- FXa assay OD, 20 nM Ab, 10 nM TFPI [2]: 1.1
- ETP vs negative control, thrombin generation assay, Ab 2.5 nM [3]: ~309%
- thrombin peak vs blank, thrombin generation assay, Ab 2.5 nM [3]: ~401%
- effect of inhibiting TFPI, FXa activity assay, Ab 10 nM [4]: ~84%
- effect of inhibiting TFPI, FXa activity assay, Ab 20 nM [4]: ~86%
- % of Normalized, TF/FVIIa/FX complex assay, Ab 1.56 nM [5]: 4.8%
- % of Normalized, TF/FVIIa/FX complex assay, Ab 3.13 nM [5]: 6%
- % of Normalized, TF/FVIIa/FX complex assay, Ab 6.25 nM [5]: 8.3%
- % of Normalized, TF/FVIIa/FX complex assay, Ab 12.5 nM [5]: 10.3%
- % of Normalized, TF/FVIIa/FX complex assay, Ab 25 nM [5]: 43.7%
- % of Normalized, TF/FVIIa/FX complex assay, Ab 50 nM [5]: 80.3%
- % of Normalized, TF/FVIIa/FX complex assay, Ab 100 nM [5]: 99.8%
- FXa assay % of FXa alone, 2.5 nM Ab, 10 nM TFPI [6]: 7.9%
- FXa assay % of FXa alone, 5 nM Ab, 10 nM TFPI [6]: 37.7%
- FXa assay % of FXa alone, 10 nM Ab, 10 nM TFPI [6]: 84.3%
- FXa assay % of FXa alone, 20 nM Ab, 10 nM TFPI [6]: 91.7%
- FXa assay OD, 2.5 nM Ab, 10 nM TFPI [6]: 0.064
- FXa assay OD, 5 nM Ab, 10 nM TFPI [6]: 0.306
- FXa assay OD, 10 nM Ab, 10 nM TFPI [6]: 0.684
- FXa assay OD, 20 nM Ab, 10 nM TFPI [6]: 0.745
- A405, TF/FVIIa/FX complex assay, Ab 1.56 nM [7]: 0.143
- A405, TF/FVIIa/FX complex assay, Ab 3.13 nM [7]: 0.152
- A405, TF/FVIIa/FX complex assay, Ab 6.25 nM [7]: 0.168
- A405, TF/FVIIa/FX complex assay, Ab 12.5 nM [7]: 0.228
- A405, TF/FVIIa/FX complex assay, Ab 25 nM [7]: 0.795
- A405, TF/FVIIa/FX complex assay, Ab 50 nM [7]: 0.947
- A405, TF/FVIIa/FX complex assay, Ab 100 nM [7]: 0.951
- % of Normalized, TF/FVIIa/FX complex assay (FX 5 nM), Ab 1.56 nM [8]: 6.2%
- % of Normalized, TF/FVIIa/FX complex assay (FX 5 nM), Ab 3.13 nM [8]: 5.9%
- % of Normalized, TF/FVIIa/FX complex assay (FX 5 nM), Ab 6.25 nM [8]: 6.9%
- % of Normalized, TF/FVIIa/FX complex assay (FX 5 nM), Ab 12.5 nM [8]: 9.7%
- % of Normalized, TF/FVIIa/FX complex assay (FX 5 nM), Ab 25 nM [8]: 26.6%
- % of Normalized, TF/FVIIa/FX complex assay (FX 5 nM), Ab 50 nM [8]: 80.5%
- % of Normalized, TF/FVIIa/FX complex assay (FX 5 nM), Ab 100 nM [8]: 100%
- FXa assay % of FXa alone, 2.5 nM Ab, 10 nM TFPI [9]: 8.7%
- FXa assay % of FXa alone, 5 nM Ab, 10 nM TFPI [9]: 47.3%
- FXa assay % of FXa alone, 10 nM Ab, 10 nM TFPI [9]: 89.6%
- FXa assay % of FXa alone, 20 nM Ab, 10 nM TFPI [9]: 101%
- FXa assay OD, 2.5 nM Ab, 10 nM TFPI [9]: 0.042
- FXa assay OD, 5 nM Ab, 10 nM TFPI [9]: 0.229
- FXa assay OD, 10 nM Ab, 10 nM TFPI [9]: 0.433
- FXa assay OD, 20 nM Ab, 10 nM TFPI [9]: 0.488
- A405, TF/FVIIa/FX complex assay, Ab 1.56 nM [10]: 0.153
- A405, TF/FVIIa/FX complex assay, Ab 3.13 nM [10]: 0.167
- A405, TF/FVIIa/FX complex assay, Ab 6.25 nM [10]: 0.19
- A405, TF/FVIIa/FX complex assay, Ab 12.5 nM [10]: 0.259
- A405, TF/FVIIa/FX complex assay, Ab 25 nM [10]: 0.923
- A405, TF/FVIIa/FX complex assay, Ab 50 nM [10]: 0.905
- A405, TF/FVIIa/FX complex assay, Ab 100 nM [10]: 0.935
- A405, TF/FVIIa/FX complex assay, Ab 1.56 nM [11]: 0.041
- A405, TF/FVIIa/FX complex assay, Ab 3.13 nM [11]: 0.051
- A405, TF/FVIIa/FX complex assay, Ab 6.25 nM [11]: 0.071
- A405, TF/FVIIa/FX complex assay, Ab 12.5 nM [11]: 0.088
- A405, TF/FVIIa/FX complex assay, Ab 25 nM [11]: 0.371
B1: clone 1023 (antibody, V domains shown)
VH: EVQLVESGGGLVKPGGSLRLSCAASGFTFSSYAMNWVRQAPGKGLEWVGTITTGGSYTYYADSVDGRFTISRDNAKNSLYLQMNSLRAEDTAVYYCARQDGNFLMDYWGQGTLVTVSS
VL: DVVMTQTPLSLPVTLGQPASISCKSSQSLLDIDGKTYLNWLQQRPGQSPKRLIYLVSKLDSGVPDRFTGSGSGTDFTLKISRVEAEDVGVYYCWQGTHFPFTFGQGTKVEIKR
notes: scFv on yeast at selection; human IgG4/kappa IgG as purified
